This data set deals with T1, TOP3A WT (Homo sapiens, UniProt Q13472 16-934).
T1 sequence: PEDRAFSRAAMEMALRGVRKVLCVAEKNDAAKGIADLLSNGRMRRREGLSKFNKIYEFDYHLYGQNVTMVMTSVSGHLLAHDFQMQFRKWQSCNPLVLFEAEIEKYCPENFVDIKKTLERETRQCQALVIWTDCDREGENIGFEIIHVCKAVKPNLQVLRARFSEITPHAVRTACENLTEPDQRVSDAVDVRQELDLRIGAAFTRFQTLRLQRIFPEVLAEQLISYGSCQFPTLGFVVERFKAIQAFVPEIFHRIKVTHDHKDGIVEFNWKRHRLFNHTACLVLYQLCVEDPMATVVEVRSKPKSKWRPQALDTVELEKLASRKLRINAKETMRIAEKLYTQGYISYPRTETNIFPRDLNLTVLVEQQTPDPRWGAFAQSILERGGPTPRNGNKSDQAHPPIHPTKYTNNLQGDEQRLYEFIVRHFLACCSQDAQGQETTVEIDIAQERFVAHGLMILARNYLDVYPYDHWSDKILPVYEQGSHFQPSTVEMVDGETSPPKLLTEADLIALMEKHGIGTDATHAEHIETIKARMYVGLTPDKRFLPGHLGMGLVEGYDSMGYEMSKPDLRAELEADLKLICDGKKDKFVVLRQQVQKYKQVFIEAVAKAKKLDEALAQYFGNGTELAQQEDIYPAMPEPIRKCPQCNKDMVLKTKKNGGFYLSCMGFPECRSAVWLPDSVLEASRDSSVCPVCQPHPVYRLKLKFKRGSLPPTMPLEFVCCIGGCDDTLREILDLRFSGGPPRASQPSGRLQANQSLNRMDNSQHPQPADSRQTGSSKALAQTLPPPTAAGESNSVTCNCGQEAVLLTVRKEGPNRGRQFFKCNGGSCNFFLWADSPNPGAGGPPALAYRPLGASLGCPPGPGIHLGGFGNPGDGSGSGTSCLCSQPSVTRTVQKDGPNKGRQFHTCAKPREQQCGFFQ
Description: EMSA; two shifted bands (two TOP3A molecules); 25 mM HEPES pH 7.5, 70 mM NaCl, 100 ug/ml BSA, 1 mM DTT, 10% glycerol; 10 fmol oligo, 0-250 fmol TOP3A in 20 ul; 37 C 15 min, then ice; 8% native PAGE in 0.5x TBE at 4 C. As to conditions: protein: recombinant; tags: N-terminal TEV-cleavable 6xHis, cleaved; label: 5' 32P; single strand.

B1: EMSA substrate 80-mer (ssDNA)
DNA: ACCACATTAACAACATAAAACCCTCATTCACACGAGAAAACACCCTCATGTTCATACACCTATCCCCCATTCTCCTCCTA
Take B1: the binding result is reported as “binds”.

These data come from PMC10165364, “Pathological variants in TOP3A cause distinct disorders of mitochondrial and nuclear genome stability”.
